According to the supplement of paper PMC10567573:

B1: TMEM192 (parent)
chain: LWILHLLLECYIQYHHSKIRNRGY

Variants of: B1
Test: protein stability index of a GFP-peptide fusion (GPS, HEK-293T) (PSI 1-6); higher = more stable
Conditions: c terminus: a fixed tail appended
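Also: lentivirally expressed fusions sorted by FACS into six bins by GFP to DsRed ratio, PSI derived from sequencing read proportions per bin multiplied by bin number.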

Point of comparison: LWILHLLLECYIQVHHSKIRNRGY [Y14V], protein stability index 2.53. Against it:
- LWILHLLLECYIRYHHSKIRNRGY [Q13R] — higher, 2.9
- LWILHLLLECYITYHHSKIRNRGY [Q13T] — lower, 1.75
- LWILHLLLECYILYHHSKIRNRGY [Q13L] — lower, 2
- LWILHLLLECYISYHHSKIRNRGY [Q13S] — lower, 1.9
- LWILHLLLECYIEYHHSKIRNRGY [Q13E] — lower, 1.8
- LWILHLLLECYIHYHHSKIRNRGY [Q13H] — higher, 2.98
- LWILHLLLECYINYHHSKIRNRGY [Q13N] — higher, 3.19
- LWILHLLLECYIMYHHSKIRNRGY [Q13M] — lower, 2.08
- LWILHLLLECYIYYHHSKIRNRGY [Q13Y] — lower, 1.85
- LWILHLLLECYIKYHHSKIRNRGY [Q13K] — lower, 2.05
- LWILHLLLECYIPYHHSKIRNRGY [Q13P] — higher, 3
- LWILHLLLECYIGYHHSKIRNRGY [Q13G] — lower, 1.39
- LWILHLLLECYIAYHHSKIRNRGY [Q13A] — higher, 3.94
- LWILHLLLECYIIYHHSKIRNRGY [Q13I] — higher, 2.75
- LWILHLLLECYIFYHHSKIRNRGY [Q13F] — higher, 2.88
- LWILHLLLECYIDYHHSKIRNRGY [Q13D] — lower, 2.32
- LWILHLLLECYICYHHSKIRNRGY [Q13C] — lower, 2.06
- LWILHLLLECYIQYHHSMIRNRGY [K18M] — higher, 3.16
- LWILHLLLECYIQYHHSTIRNRGY [K18T] — higher, 2.76
- LWILHLLLECYIQYHHSSIRNRGY [K18S] — higher, 3.8
- LWILHLLLECYIQYHHSFIRNRGY [K18F] — higher, 2.88
- LWILHLLLECYIQYHHSHIRNRGY [K18H] — higher, 4.09
- LWILHLLLECYIQYHHSRIRNRGY [K18R] — higher, 4.17
- LWILHLLLECYIQYHHSPIRNRGY [K18P] — lower, 2.32
- LWILHLLLECYIQYHHSNIRNRGY [K18N] — higher, 3.08
- LWILHLLLECYIQYHHSDIRNRGY [K18D] — higher, 3.53
- LWILHLLLECYIQYHHSEIRNRGY [K18E] — higher, 2.77
- LWILHLLLECYIQYHHSGIRNRGY [K18G] — higher, 2.69
- LWILHLLLECYIQYHHSQIRNRGY [K18Q] — higher, 2.67
- LWILHLLLECYIQYHHSKIRNRAY [G23A] — lower, 2.48
- LWILHLLLECYWQYHHSKIRNRGY [I12W] — lower, 1.79
- LWILHLLLECYVQYHHSKIRNRGY [I12V] — lower, 2.27
- LWILHLLLECYNQYHHSKIRNRGY [I12N] — lower, 2.13
- LWILHLLLECYTQYHHSKIRNRGY [I12T] — higher, 2.58
- LWILHLLLECYDQYHHSKIRNRGY [I12D] — lower, 1.5
- LWILHLLLECYCQYHHSKIRNRGY [I12C] — lower, 1.69
- LWILHLLLECYGQYHHSKIRNRGY [I12G] — lower, 1.07
- LWILHLLLECYHQYHHSKIRNRGY [I12H] — lower, 1.95
- LWILHLLLECYRQYHHSKIRNRGY [I12R] — higher, 2.8
- LWILHLLLECYKQYHHSKIRNRGY [I12K] — lower, 2.21
- LWILHLLLECYEQYHHSKIRNRGY [I12E] — lower, 1.88
- LWILHLLLECYMQYHHSKIRNRGY [I12M] — lower, 1.82
- LWILHLLLECYLQYHHSKIRNRGY [I12L] — the same, 2.53
- LWILHLLLECYQQYHHSKIRNRGY [I12Q] — lower, 1.62
- LWILHLLLECYFQYHHSKIRNRGY [I12F] — higher, 3.41
- LWILHLLLECYSQYHHSKIRNRGY [I12S] — lower, 1.94
- LWILHLLLECYIQYHKSKIRNRGY [H16K] — lower, 1.64
- LWILHLLLECYIQYHCSKIRNRGY [H16C] — lower, 2.41
- LWILHLLLECYIQYHSSKIRNRGY [H16S] — lower, 1.05
- LWILHLLLECYIQYHESKIRNRGY [H16E] — lower, 1.91
- LWILHLLLECYIQYHLSKIRNRGY [H16L] — lower, 1.85
- LWILHLLLECYIQYHGSKIRNRGY [H16G] — the same, 2.53
- LWILHLLLECYIQYHVSKIRNRGY [H16V] — higher, 2.54
- LWILHLLLECYIQYHDSKIRNRGY [H16D] — lower, 1.47
- LWILHLLLECYIQYHNSKIRNRGY [H16N] — lower, 1.3
- LWILHLLLECYIQYHRSKIRNRGY [H16R] — lower, 1.5
- LWILHLLLECYIQYHISKIRNRGY [H16I] — higher, 3.68
- LWILHLLLECYIQYHQSKIRNRGY [H16Q] — lower, 2.43
- LWILHLLLECYIQYHPSKIRNRGY [H16P] — lower, 2.29
- LWILHLLLECYIQYHFSKIRNRGY [H16F] — lower, 2.36
- LWILHLLLECYIQYHWSKIRNRGY [H16W] — higher, 2.85
- LWILHLLLECYIQIHHSKIRNRGY [Y14I] — lower, 1.79
- LWILHLLLECYIQCHHSKIRNRGY [Y14C] — lower, 2.16
- LWILHLLLECYIQSHHSKIRNRGY [Y14S] — lower, 2.47
- LWILHLLLECYIQTHHSKIRNRGY [Y14T] — lower, 2.49
- LWILHLLLECYIQEHHSKIRNRGY [Y14E] — lower, 2.18
- LWILHLLLECYIQRHHSKIRNRGY [Y14R] — lower, 2.11
- LWILHLLLECYIQPHHSKIRNRGY [Y14P] — higher, 2.67
- LWILHLLLECYIQFHHSKIRNRGY [Y14F] — higher, 2.96
- LWILHLLLECYIQGHHSKIRNRGY [Y14G] — lower, 1.41
- LWILHLLLECYIQWHHSKIRNRGY [Y14W] — lower, 1.1
- LWILHLLLECYIQHHHSKIRNRGY [Y14H] — lower, 2.31
- LWILHLLLECYIQAHHSKIRNRGY [Y14A] — higher, 3.1
- LWILHLLLECYIQDHHSKIRNRGY [Y14D] — lower, 2.21
- LWILHLLLECYIQLHHSKIRNRGY [Y14L] — higher, 3.2
- LWILHLLLECYIQNHHSKIRNRGY [Y14N] — lower, 1.53
- LWILHLLLECYIQQHHSKIRNRGY [Y14Q] — lower, 2
- LWILHLLLECYIQKHHSKIRNRGY [Y14K] — lower, 2.01
- LWILHLLLECYIQYHHSKIRPRGY [N21P] — higher, 2.81
- LWILHLLLECYIQYHHSKIRVRGY [N21V] — higher, 2.93
- LWILHLLLECYIQYHHSKIRARGY [N21A] — higher, 2.86
- LWILHLLLECYIQYHHSKIRRRGY [N21R] — higher, 3.57
- LWILHLLLECYIQYHHSKIRFRGY [N21F] — lower, 1.97
- LWILHLLLECYIQYHHSKIRKRGY [N21K] — lower, 1.98
- LWILHLLLECYIQYHHSKIRSRGY [N21S] — higher, 2.7
- LWILHLLLECYIQYHHSKIRIRGY [N21I] — lower, 2.45
- LWILHLLLECYIQYHHSKIRGRGY [N21G] — lower, 2.35
- LWILHLLLECYIQYHHSKIRHRGY [N21H] — the same, 2.53
- LWILHLLLECYIQYHHSKIRLRGY [N21L] — lower, 2.11
- LWILHLLLECYIQYHHSKIRWRGY [N21W] — higher, 2.74
- LWILHLLLECYIQYHHSKIRYRGY [N21Y] — higher, 2.6
- LWILHLLLECYIQYHHGKIRNRGY [S17G] — lower, 2.28
- LWILHLLLECYIQYHHNKIRNRGY [S17N] — higher, 2.6
